Experimental data published in PMC2833306.

Target: integrins on HS deficient CHO-2241 cells (Chinese hamster (endogenous in CHO-2241))
Experiment: flow cytometry on cells; CHO-2241 cells (HS deficient) in PBS 1 mM CaCl2, 1 h at 4°C with 15 ug/mL particles; bound particles detected with rabbit serum against the Ad3 penton base and FITC secondary antibody

Substance: MutAQAS dodecahedron (HAd3 penton base, KQKR to AQAS) (from UniProt Q2Y0H9 1-544) (complex)
- inhibition of binding compared to Bs-Dd: 80%
